From PMC12273574, “Biochemical and structural characterization of a GNAT superfamily protein acetyltransferase from Helicobacter pylori” (The Journal of Biological Chemistry, 2025)

Target: DNA processing protein A (DprA) from Helicobacter pylori strain J99 (Helicobacter pylori strain J99) (UniProt B5ZAA1)
Assay: SPR; Biacore 3000; DprA immobilised on a CM5 chip (~500 RU), HP0935 passed over at varying concentrations; 50 mM Tris-Cl pH 7.4, 25 °C, 20 μl/min, 300 s dissociation; Langmuir binding fit

## HP0935, N-acetyltransferase domain-containing protein (GNAT superfamily protein acetyltransferase) from Helicobacter pylori strain 26695 (from UniProt O25589 2-161) (enzyme)
  Kd: 3.28 µM
